Test results: patent publication US20190367619A1 (ARGENX, published 2019)
Changes are numbered by the printed parent chain.

T1: recombinant human galectin-10, TEV-cleaved (human, UniProt Q05315 1-142)
T1 sequence: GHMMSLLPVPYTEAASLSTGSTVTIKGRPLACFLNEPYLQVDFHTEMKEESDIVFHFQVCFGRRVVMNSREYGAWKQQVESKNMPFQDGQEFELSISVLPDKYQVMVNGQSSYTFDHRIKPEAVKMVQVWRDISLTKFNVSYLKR

T2: human galectin-10-His (human)
T2 construct: The last M of the tag may be Met1 of galectin-10; also called humanGal10-His; hGal10
T2 chain: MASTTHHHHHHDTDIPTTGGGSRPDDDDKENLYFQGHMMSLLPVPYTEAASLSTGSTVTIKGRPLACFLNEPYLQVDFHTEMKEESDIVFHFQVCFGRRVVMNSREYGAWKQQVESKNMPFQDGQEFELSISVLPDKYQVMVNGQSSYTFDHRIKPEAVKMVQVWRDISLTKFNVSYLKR

T3: cynomolgus galectin-10-His, WGS isoform (cynomolgus)
T3 construct: also called cynoGal10-WGS; not shown: His tag
T3 chain: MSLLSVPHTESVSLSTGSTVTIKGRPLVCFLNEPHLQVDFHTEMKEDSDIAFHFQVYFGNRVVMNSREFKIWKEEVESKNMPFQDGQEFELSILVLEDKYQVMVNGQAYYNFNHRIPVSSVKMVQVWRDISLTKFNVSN

T4: cynomolgus galectin-10-His, YRT isoform (cynomolgus)
T4 construct: also called cynoGal10-YRT; not shown: His tag
T4 chain: T3 chain with K23E, G24A, L31F, F69Y, K70R, I71T, S92R

T5: human galectin-10 as coated in ELISA (soluble galectin-10; tag not given) (human, UniProt Q05315 1-142, limits assumed)
T5 construct: also called coated galectin-10; Gal10
T5 sequence: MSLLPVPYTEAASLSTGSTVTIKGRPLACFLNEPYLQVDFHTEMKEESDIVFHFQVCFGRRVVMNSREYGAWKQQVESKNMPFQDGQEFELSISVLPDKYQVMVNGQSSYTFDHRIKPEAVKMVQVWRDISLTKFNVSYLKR

T6: human galectin-10-His (recombinant human galectin-10 with TEV-cleavable N-terminal His-tag) (human)
T6 construct: SEC-MALLS: dimer in solution; also called Gal10-His; humanGal10-His
T6 chain: T2 chain

B1: 8H11 mouse IgG1 (antibody, V domains shown)
VH: ELQLVESGGGLVQPGGSLRLSCAASGFTFSTNYMNWVRQAPGKGLEWVSGITSGGGRTYYADSVKGRFTISRDNAKNTLYLQMNSLKPEDTALYYCARTDHAWLDAWGQGTLVTVSS
VL: QAGLTQPPSVSGTLGKTVTISCAGTSSDVGYGNYVSWYQQLPGTAPKLLIYAVSTRASGIPDRFSGSKSGNTASLTISGLLSEDEADYYCASYRSSNNYVFGGGTKLTVL
notes: VH and VL cloned in frame with mouse IgG1 constant domains; also called 8H11 mIgG1
B2: 11F02 mouse IgG1 (antibody, V domains shown)
VH: B1 VH with L4V, G54H, G56A, A75S, W103S
VL: QTVVTQEPSLSVSPGGTVTLTCGLSSGSVTSSNYPGWYQQKPGQAPRTLIYNTNSRYSGVPNRFSGSISGNKAALTITGAQPEDEADYYCALYMGSSSYNTVFGGGTHLTVL
notes: VH and VL cloned in frame with mouse IgG1 constant domains; also called 11F02 mIgG1
B3: 10B02 mouse IgG1 (antibody, V domains shown)
VH: QVQLVESGGGLVQPGGSLRVSCAASGFTFSYHYMNWVRQAPGKGLEWVSGISAGGGRTYYADSVKGRFTISRDNAKNTLYLQMNSLNAEDTALYYCARVHGITNDYWGQGTQVTVSS
VL: QSALTQPPSVSGSPGKTVTISCAGTSSDVGYGNYVSWYQQLPGMAPKLLIYEVNKRASGITDRFSGSKSGNTAFLTISGLQSEDEADYYCASYRNSNNWVFGGGTHLTVL
notes: VH and VL cloned in frame with mouse IgG1 constant domains; also called 10B02 mIgG1
B4: 10D02 mouse IgG1 (antibody, V domains shown)
VH: EVQLVESGGGLVQPGGSLRVSCAASGFTFSSYYMSWVRQAPGKGLEWVSGIVTGGGRTHYTDSVKGRFTITRDNAKNTLYLQMNSLRPEDTALYYCARVNGVVTNYDYWGQGTQVTVSS
VL: B3 VL with S2A, A3V, E52D, F74S, Y89F, N95S, S96P, W99V, G103Q
notes: VH and VL cloned in frame with mouse IgG1 constant domains; also called 10D02 mIgG1
B5: scFv 2F09 (periplasmic extract, Myc-tagged) (scFv, not shown: small tags and cut ends)
scFv: QVQVQESGPGLVKPSQTLSLTCTVSGGSITTNYFYWSWIRQSPGKGLEWIGAIAYSGRTYYSPSLKSRTSISRDTSNNQFTLQLSSVTPEDTAVYYCARGPKGLASYYDYWGQGTQVTVSSGGGGSGGGGSGGGGSSSALTQPSAVSVSLGQTARITCQGGNFGYYYVSWYQQKPGQAPVLVIYRDSGRPSGIPERFSGSSSGDTATLTISGAQAEDEADYYCQSGSSSDNTVFGGGTHLTVL
B6: scFv 1D11 (periplasmic extract, Myc-tagged) (scFv, not shown: small tags and cut ends)
scFv: QVQLVESGGGLVQPGGSLRLSCAASGFTFDDYAMSWVRQAPGKGLEWVSGISWNGGSTYYAESMKGRFTISRDNAKNTLYLQMNSLKSEDTAVYYCAKDRNLGYRLGYPYDYWGQGTQVTVSSGGGGSGGGGSGGGGSQSVLTQPPSVSGSPGETVTISCAGTSSDVGYGNYVSWYQQLPGMAPRLLIYEVNKRASGITDRFSGSKSGNTASLTISGLQSEDEGDYYCASYRSSNNAVFGGGTHLTVL
notes: also called 1D011
B7: scFv 2C07 (periplasmic extract, Myc-tagged) (scFv, not shown: small tags and cut ends)
scFv: ELQLVESGGGLVQPGGSLRLSCAASGFTFSSYAMSWVRQAPGKGLEWVSNINSGGGSTGYADSVKGRFTISRDNAKNTLYLQMNSLKPEDMAVYYCAKYLRTYYPNAAFGMDYWGKGTLVTVSSGGGGSGGGGSGGGGSQAVLTQPSAVSVSLGQTARITCQGGNFGRYYASWYQQKPGQAPVLVIYRDSERPSGIPERFSGSSSGDTATLTISGAQAEDEADYYCQSGRSSDNAVFGGGTHLTGL
B8: scFv 4E08 (periplasmic extract, Myc-tagged) (scFv, not shown: small tags and cut ends)
scFv: QVQRQESGPGLVKPSQTLSLTCTVSGGSITTSYYAWSWIRQPPGKGLEWMGVIASDGSTYYSPSLKSRTSISRDTSKNQFSLQLSSVTPEDTAVYYCALYIRGSSWSGWSAYDYWGQGTQVTVSSGGGGSGGGGSGGGGSQPVLNQPSAVSVSLGQTARITCQGGNFGYYYGSWYQQKPGQAPVLVIYKDSERPSGIPERFSGSSSGGTATLTISRAQAEDEADYYCQSADSSDNPVFGGGTHLTVL
notes: also called 4E8
B9: scFv 1C09 (periplasmic extract, Myc-tagged) (scFv, not shown: small tags and cut ends)
scFv: QVQLVESGPGLVKPSQTLSLTCTVSGGSITTNSYYWSWIRQPPGKGLEWMGAIAYSGSTYYSPSLKSRTSISRDTSKNQFTLHLSSVTPEDTAVYYCARRPNWYRALDAWGQGTLVTVSSGGGGSGGGGSGGGGSNFMLTQPSAVSVSLGQTARITCQGANLGRYYGIWYQQKPGQAPVQVIYGDSNRPSGIPERFSGSSSGGTATLTISGAQAEDEADYYCQSYESSTSPVFGGGTHLTVL
notes: also called 1C9

What follows are binders tested against T1, recombinant human galectin-10, … (assay: cell-based or functional assay).

| 50% dissolution (min) of CLCs, antibody 50 uM [min] | 90% dissolution (min) of CLCs, antibody 50 uM [min] | Binder |
| --- | --- | --- |
| 22.4 | 43.5 | B1 |
| 25.5 | 57.5 | B2 |
| 25.1 | 47.4 | B3 |
| 26.5 | 58.6 | B4 |

Molecular target: T1, recombinant human galectin-10, …
Assay: cell-based or functional assay
Remark: another data set of the same source

| 50% crystal dissolution (min), 50 uM [min] | 90% crystal dissolution (min), 50 uM [min] | Binder |
| --- | --- | --- |
| 68.3 | > 120 | B1 |
| 73.7 | > 120 | B3 |

Molecular target: T2, human galectin-10-His
Assay: ELISA, coated antigen 0.5 ug/mL
Description: (§1) In a similar setup to that used during the characterization of the scFv-human Fc molecules, the relative binding properties of the 7 mouse IgG1 antibodies were analyzed by ELISA. A Maxisorp plate was coated overnight with 0.5 μg/mL of human or cynomolgus WGS or YRT isoform of galectin-10-His. Then a serial dilution of each clone (from 100 nM, dilution 1/4, 12 points of dilutions) was incubated on coated galectin-10. After several washing steps, detection of the bound mouse IgG1 was carried out with an anti-mouse Fc-HRP antibody (DAMPO, Jackson ImmunoResearch, Catalog 715-035-150). Absorbance was measured at 450 nm (reference at 620 nm) with Tecan instrument. The raw data (OD values) were plotted on GraphPad Prism 7.01. The EC50 values for each antibody, calculated with a non-linear regression (log(agonist) vs. response Variable slope (four parameters)), are shown in the table below. Antibody 1D11 from the previous panel was included for comparison.

| EC50 [nM] | OD values [OD] | Binder |
| --- | --- | --- |
| 1.46 | 1.5 | B1 |
| 3.08 | 0.9 | B2 |
| 2.28 | 1.4 | B3 |
| 3.55 | 2.7 | B4 |

Molecular target: T3, cynomolgus galectin-10-His, WGS isoform
Assay: ELISA, coated antigen 0.5 ug/mL
Description: as §1

| EC50 [nM] | OD values [OD] | Binder |
| --- | --- | --- |
| 0.03 | 3.61 | B1 |
| 0.6 | 3.29 | B2 |
| 0.04 | 3.7 | B3 |
| 0.14 | 3.51 | B4 |

Molecular target: T4, cynomolgus galectin-10-His, YRT isoform
Assay: ELISA, coated antigen 0.5 ug/mL
Description: as §1

| EC50 [nM] | OD values [OD] | Binder |
| --- | --- | --- |
| 0.3 | 2.97 | B1 |
|  | 1.7 | B2 |
| 0.14 | 3.36 | B3 |
|  | 2.63 | B4 |

Molecular target: T2, human galectin-10-His
Assay: SPR Biacore T3000, mouse IgG1 captured
Description: (§2) The binding capacity of the mouse IgG1 antibody panel to galectin-10 was analysed on Biacore T3000. For this purpose, a capture approach was used, where a fixed concentration (1.5 μg/mL) of the mouse IgG1 clone was captured by polyclonal anti-mouse Fc antibodies immobilized on CM5 Chip to reach a binding signal around 150 RU. Then a serial dilution of human and cynomolgus WGS isoform of galectin-10-His (serial dilution, 1 over 2 from 5 μg/mL) diluted in HBS-EP pH7.4 was injected. Raw data were analysed via BIA evaluation software with a blank subtraction. The kd/KD and Rmax of each mAbs to galectin-10-His was determined using the Fit Kinetics simultaneous ka/kd/Binding with mass transfer/Local Rmax on BIA evaluation software.

| Kd [nM] | koff [s⁻¹] | kon [M⁻¹ s⁻¹] | Binder |
| --- | --- | --- | --- |
| 0.9 | 0.00197 | 2.31e+06 | B1 |
| 2.2 | 0.00489 | 2.27e+06 | B2 |
| 1.5 | 0.00205 | 1.42e+06 | B3 |
| 1.6 | 0.000865 | 547000 | B4 |

Molecular target: T3, cynomolgus galectin-10-His, WGS isoform
Assay: SPR Biacore T3000, mouse IgG1 captured
Description: as §2

| Kd [nM] | koff [s⁻¹] | kon [M⁻¹ s⁻¹] | Binder |
| --- | --- | --- | --- |
| 4.4 | 0.000754 | 170000 | B1 |
| 5 | 0.00198 | 394000 | B2 |
| 0.9 | 0.00042 | 494000 | B3 |
| 1.9 | 0.000912 | 477000 | B4 |

Each binder was assayed against T5, human galectin-10 as coated in ELISA … (assay: ELISA, scFv periplasmic extract on coated soluble galectin-10, anti-Myc-HRP).
Description: In order to test the binding capacity of the scFvs to galectin-10, an ELISA binding assay was established. Briefly, a Maxisorp plate was coated with soluble galectin-10 (1 μg/mL), then blocked with casein, before being incubated with the periplasmic extract (dilution 1/5 in PBS) containing the scFv-Myc. Detection of the binder was carried out with an anti-Myc-HRP antibody. Absorbance was measured at 450 nm (reference at 620 nm) with Tecan instrument. A significant number of galectin-10 scFv binders were isolated after the second round of selection (45-87% of binders).

| ELISA binding (OD values) [OD] | PERI-ELISA binding (OD values) [OD] | Binder |
| --- | --- | --- |
| 3.6 |  | B5 |
| 3.3 |  | B6 |
| 3.6 | 3.63 | B7 |
| 3.6 |  | B8 |
| 3.5 |  | B9 |

Molecular target: T6, human galectin-10-His (recombinant …)
Assay: BLI Octet RED96, galectin-10-His on anti-Penta-His tips, scFv periplasmic extract 1/10
Description: Briefly, galectin-10-His tagged diluted in Kinetic Buffer was captured on Anti-Penta His 1K sensor tips until an immobilization level of 1 nm was reached. Then, diluted periplasmic extracts (1/10) were applied and association/dissociation to immobilized galectin-10-His was measured using the ForteBio Data analysis 9.0 software (subtraction of the reference Tips, 1.1 binding model). During the screening, only the dissociation (off-rate) of the scFv can be determined since the effective concentration of the scFv is unknown and can vary a lot from clone to clone. […] Therefore, taking into consideration the ELISA and BLI data, a new panel of lead scFvs was selected.

| koff [s⁻¹] | Binder |
| --- | --- |
| 0.0099 | B5 |
| 0.0052 | B6 |
| 0.0067 | B7 |
| 0.0094 | B8 |
| 0.0014 | B9 |
